This is an account of results in article PMC9970071.

As usually defined, the stoichiometry N is a count of units in the complex or per binding partner.

The target of assay [1] is Full-length TBEV C protein (residues 1-96), Kuutsalo-14 strain (tick-borne encephalitis virus (TBEV-Eu), strain Kuutsalo-14). The assay is described as follows: SEC.
Assay [2] addresses Truncated TBEV C protein C_(18-93), containing residues 18-93, Kuutsalo-14 strain (tick-borne encephalitis virus (TBEV-Eu), strain Kuutsalo-14). The assay can be described thus: SEC. A general note: SEC sorts molecules by how far they enter the pores of the column.

Regarding “Full-length TBEV C protein (residues 1-96), Kuutsalo-14 strain (natural protein)”, the stoichiometry N in assay [1] stood at 2.
For “Truncated TBEV C protein C_(18-93), containing residues 18-93, Kuutsalo-14 strain (domain or fragment)”, in assay [2], the stoichiometry N was determined as 2.
